Test results published in article PMC6624300, “Structure-based mechanism for activation of the AAA+ GTPase McrB by the endonuclease McrC” (Nature Communications, 2019).
Blank lines part the entries; values can stand above or below the molecule they belong to.

B1: McrC endonuclease (enzyme, Escherichia coli, UniProt P15006 1-348, looked up)
chain: MEQPVIPVRNIYYMLTYAWGYLQEIKQANLEAIPGNNLLDILGYVLNKGVLQLSRRGLELDYNPNTEIIPGIKGRIEFAKTIRGFHLNHGKTVSTFDMLNEDTLANRIIKSTLAILIKHEKLNSTIRDEARSLYRKLPGISTLHLTPQHFSYLNGGKNTRYYKFVISVCKFIVNNSIPGQNKGHYRFYDFERNEKEMSLLYQKFLYEFCRRELTSANTTRSYLKWDASSISDQSLNLLPRMETDITIRSSEKILIVDAKYYKSIFSRRMGTEKFHSQNLYQLMNYLWSLKPENGENIGGLLIYPHVDTAVKHRYKINGFDIGLCTVNLGQEWPCIHQELLDIFDEYLK
notes: McrC, endonuclease of the McrBC restriction system, Escherichia coli; Dimer in the complex; Chain N of PDB 6HZ4 holds only residues 193-343 of the second copy; source: E. coli BL21(AI), purified (Ni-NTA, MonoS)
B2: McrBΔN (McrB construct lacking the first 161 residues; AAA+ domain of McrB) (domain or fragment, Escherichia coli, UniProt P15005 162-459, looked up)
chain: MSKTESYCLEDALNDLFIPETTIETILKRLTIKKNIILQGPPGVGKTFVARRLAYLLTGEKAPQRVNMVQFHQSYSYEDFIQGYRPNGVGFRRKDGIFYNFCQQAKEQPEKKYIFIIDEINRANLSKVFGEVMMLMEHDKRGENWSVPLTYSENDEERFYVPENVYIIGLMNTADRSLAVVDYALRRRFSFIDIEPGFDTPQFRNFLLNKKAEPSFVESLCQKMNELNQEISKEATILGKGFRIGHSYFCCGLEDGTSPDTQWLNEIVMTDIAPLLEEYFFDDPYKQQKWTNKLLGDS
notes: McrB, AAA+ GTPase of the McrBC restriction system, Escherichia coli; Forms a hexameric ring in the structure; two rings per tetradecamer; also called McrB∆N; source: E. coli BL21(AI), purified (Ni-NTA, MonoQ, Superdex200)

Assays:
MantGMPPNP (GNP) = assay: Mant-nucleotide fluorescence time trace (MantGMPPNP + buffer, then protein added); details: protein added at about 160 s, signal before protein est. 26000, parent: est. 40000
[1] = target: the molecule itself; assay: cryo-EM structure; McrBΔN and McrC mixed 4:1 with GTP and MgCl2, complex purified by SEC; grids with 4.0 mg/ml McrBΔNC in 10 mM Tris-HCl pH 7.4, 2.0 mM GNP, 0.10 M NaCl, 5.0 mM MgCl2
McrC endonuclease = target: B1; assay: as above; details: both partners purified
[2] = value is the mean of the trace after addition, read off a plot

- response (MantGMPPNP (GNP); [2]): 39000 CPS/µAmps
Molecule: McrB (wild type) (from UniProt P15005) E298A

- response (MantGMPPNP (GNP); trace hidden under R348A, which the legend says it overlaps, read off a …): 28000 CPS/µAmps
Molecule: McrB (wild type) (from UniProt P15005) R349A

- response (MantGMPPNP (GNP); [2]): 28000 CPS/µAmps
Molecule: McrB (wild type) (from UniProt P15005) R348A

Molecule: B1
- stoichiometry N [1]: 2

Molecule: B2
- binding result (McrC endonuclease): binds
